Assay results published in the supplement of paper PMC9112550, “Optimization of the antimicrobial peptide Bac7 by deep mutational scanning” (BMC Biology, 2022).

Test system: Escherichia coli TOP10
Assay: shrunken log2 fold change of peptide-encoding DNA abundance (4.5 h post-induction vs induction); higher = less antimicrobial activity (less host growth inhibition)
Conditions: time post-induction: 4.5 h; library: site-saturation at positions 5, 18, 19, 20
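Also: peptides expressed intracellularly from a pBAD plasmid library in pooled LB shake-flask culture, induced with 0.3% L-arabinose, DNA abundance read by NGS, three biological replicates, DESeq2 with apeglm shrinkage.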

Row | Sequence | shrunken log2 fold change
1 | RRIRQRPPRLPRPRPRPTCQPRP | -0.125
2 | RRIRTRPPRLPRPRPRPIGEPRP | -0.195
3 | RRIRDRPPRLPRPRPRPDLTPRP | 0.00118
4 | RRIRCRPPRLPRPRPRPALSPRP | 0.282
5 | RRIRPRPPRLPRPRPRPVRLPRP | 0.238
6 | RRIRDRPPRLPRPRPRPTNAPRP | 0.182
7 | RRIRWRPPRLPRPRPRPTCIPRP | 0.248
8 | RRIRTRPPRLPRPRPRPTPAPRP | 0.57
9 | RRIRNRPPRLPRPRPRPECDPRP | 0.203
10 | RRIRWRPPRLPRPRPRPNQPPRP | 0.198
11 | RRIRQRPPRLPRPRPRPGEKPRP | 0.139
12 | RRIRLRPPRLPRPRPRPCFYPRP | -0.504
13 | RRIRRRPPRLPRPRPRPYCNPRP | -0.834
14 | RRIRWRPPRLPRPRPRPIMSPRP | -0.161
15 | RRIRSRPPRLPRPRPRPSNSPRP | -0.145
16 | RRIRTRPPRLPRPRPRPQNNPRP | -0.716
17 | RRIRGRPPRLPRPRPRPDKHPRP | 0.0564
18 | RRIRKRPPRLPRPRPRPCALPRP | 0.0167
19 | RRIRGRPPRLPRPRPRPLGAPRP | 1.07
20 | RRIRYRPPRLPRPRPRPTDQPRP | -0.175
21 | RRIRYRPPRLPRPRPRPAFYPRP | -0.513
22 | RRIRKRPPRLPRPRPRPQMWPRP | 0.608

Row | Sequence | shrunken log2 fold change
23 | RRIRYRPPRLPRPRPRPPMQPRP | -0.0424
24 | RRIRYRPPRLPRPRPRPSAYPRP | -0.854
25 | RRIRCRPPRLPRPRPRPSMPPRP | -0.558
26 | RRIRERPPRLPRPRPRPRKMPRP | -0.0569
27 | RRIRYRPPRLPRPRPRPPREPRP | -0.0166
28 | RRIRWRPPRLPRPRPRPNCIPRP | -0.0807
29 | RRIRKRPPRLPRPRPRPPFDPRP | 0.586
30 | RRIRNRPPRLPRPRPRPAFTPRP | -0.176
31 | RRIRERPPRLPRPRPRPYQGPRP | -0.199
32 | RRIRNRPPRLPRPRPRPWDMPRP | -0.304
33 | RRIRCRPPRLPRPRPRPLVKPRP | -0.0116
34 | RRIRTRPPRLPRPRPRPMTDPRP | 0.0245
35 | RRIRDRPPRLPRPRPRPGGDPRP | 0.908
36 | RRIRGRPPRLPRPRPRPYPLPRP | -0.236
37 | RRIRFRPPRLPRPRPRPSENPRP | -0.458
38 | RRIRHRPPRLPRPRPRPWLHPRP | -0.00987
39 | RRIRSRPPRLPRPRPRPFKPPRP | -0.297
40 | RRIRCRPPRLPRPRPRPKDMPRP | -0.531
41 | RRIRWRPPRLPRPRPRPDKTPRP | -0.0185
42 | RRIRTRPPRLPRPRPRPRCNPRP | -0.36
43 | RRIRMRPPRLPRPRPRPHFQPRP | 0.22
44 | RRIRLRPPRLPRPRPRPVLCPRP | 0.168

Row | Sequence | shrunken log2 fold change
45 | RRIRKRPPRLPRPRPRPMKAPRP | -0.00163
46 | RRIRRRPPRLPRPRPRPCSRPRP | 0.00396
47 | RRIRIRPPRLPRPRPRPIATPRP | -0.471
48 | RRIRLRPPRLPRPRPRPVASPRP | -0.0255
49 | RRIRMRPPRLPRPRPRPFDFPRP | 0.0495
50 | RRIRGRPPRLPRPRPRPMQTPRP | 0.0492
51 | RRIRRRPPRLPRPRPRPCHNPRP | -0.278
52 | RRIRKRPPRLPRPRPRPWQDPRP | -0.0361
53 | RRIRTRPPRLPRPRPRPYFRPRP | -0.138
54 | RRIRSRPPRLPRPRPRPYQPPRP | -0.161
55 | RRIRERPPRLPRPRPRPMYFPRP | -0.251
56 | RRIRIRPPRLPRPRPRPGAMPRP | 0.046
57 | RRIRVRPPRLPRPRPRPEGFPRP | 0.0396
58 | RRIRLRPPRLPRPRPRPWTAPRP | 0.0908
59 | RRIRVRPPRLPRPRPRPLNVPRP | -0.434
60 | RRIRLRPPRLPRPRPRPEDDPRP | 0.0572
61 | RRIRKRPPRLPRPRPRPKWLPRP | -0.0433
62 | RRIRERPPRLPRPRPRPPNDPRP | -0.462
63 | RRIRWRPPRLPRPRPRPVNSPRP | 0.0541
64 | RRIRMRPPRLPRPRPRPRNQPRP | 0.484
65 | RRIRPRPPRLPRPRPRPPTVPRP | 0.279
66 | RRIRGRPPRLPRPRPRPCSRPRP | 0.0838

Row | Sequence | shrunken log2 fold change
67 | RRIRIRPPRLPRPRPRPIQQPRP | -0.0134
68 | RRIRCRPPRLPRPRPRPRDHPRP | 0.197
69 | RRIRNRPPRLPRPRPRPVCMPRP | -0.0349
70 | RRIRERPPRLPRPRPRPIKEPRP | 0.0101
71 | RRIRCRPPRLPRPRPRPIACPRP | -0.285
72 | RRIRRRPPRLPRPRPRPQHMPRP | -0.296
73 | RRIRWRPPRLPRPRPRPWLPPRP | -0.188
74 | RRIRIRPPRLPRPRPRPSGNPRP | 0.0322
75 | RRIRTRPPRLPRPRPRPLEKPRP | 0.419
76 | RRIRHRPPRLPRPRPRPPFLPRP | -0.251
77 | RRIRWRPPRLPRPRPRPWPMPRP | -0.0421
78 | RRIRARPPRLPRPRPRPFWSPRP | 0.061
79 | RRIRPRPPRLPRPRPRPTDIPRP | -0.241
80 | RRIRYRPPRLPRPRPRPGIRPRP | 0.0108
81 | RRIRKRPPRLPRPRPRPFQQPRP | 0.202
82 | RRIRIRPPRLPRPRPRPSQKPRP | -0.187
83 | RRIRQRPPRLPRPRPRPHWVPRP | 0.0288
84 | RRIRARPPRLPRPRPRPYHVPRP | -0.963
85 | RRIRERPPRLPRPRPRPQYDPRP | -0.418
86 | RRIRVRPPRLPRPRPRPDGHPRP | -0.00145
87 | RRIRLRPPRLPRPRPRPLYTPRP | -0.461
88 | RRIRYRPPRLPRPRPRPIVQPRP | -0.121

Row | Sequence | shrunken log2 fold change
89 | RRIRERPPRLPRPRPRPENVPRP | -0.0141
90 | RRIRPRPPRLPRPRPRPMKMPRP | -0.148
91 | RRIRTRPPRLPRPRPRPDKEPRP | -0.0196
92 | RRIRRRPPRLPRPRPRPWVQPRP | 0.25
93 | RRIRTRPPRLPRPRPRPPDLPRP | 0.243
94 | RRIRGRPPRLPRPRPRPNPMPRP | 0.17
95 | RRIRKRPPRLPRPRPRPMFEPRP | 0.312
96 | RRIRLRPPRLPRPRPRPRTAPRP | 0.482
97 | RRIRHRPPRLPRPRPRPGDEPRP | -0.492
98 | RRIRARPPRLPRPRPRPKFLPRP | 0.288
99 | RRIRFRPPRLPRPRPRPRQKPRP | 0.363
100 | RRIRLRPPRLPRPRPRPMSAPRP | 0.344
101 | RRIRRRPPRLPRPRPRPVIDPRP | -0.165
102 | RRIRVRPPRLPRPRPRPYDPPRP | -0.468
103 | RRIRHRPPRLPRPRPRPPWTPRP | -0.131
104 | RRIRCRPPRLPRPRPRPVCQPRP | -0.102
105 | RRIRYRPPRLPRPRPRPINFPRP | -0.299
106 | RRIRWRPPRLPRPRPRPDMLPRP | 0.142
107 | RRIRWRPPRLPRPRPRPSIFPRP | -0.396
108 | RRIRIRPPRLPRPRPRPTKDPRP | -0.491
109 | RRIRYRPPRLPRPRPRPCNMPRP | -0.873
